Patent US20190248875A1

Molecular target: envelope protein of DENV type 2 (DENV2), strain NGC M29095 (dengue virus type 2 (strain NGC)) (UniProt P14340)
Experiment: cell-based or functional assay

4G2 antibodies against the envelope protein of Flavivirus (antibody)
fold of infection enhancement of DENV2 in K562 cells (ADE assay): 60 fold
